# Results from patent publication US20250059285A1 (ARGENX, published 2025).
# T1: human Gal10-His (human, UniProt Q05315 2-142, limits assumed)
# T1 construct: also called hGal10-His; human Gal10-His tagged; not shown: His tag
# T1 sequence: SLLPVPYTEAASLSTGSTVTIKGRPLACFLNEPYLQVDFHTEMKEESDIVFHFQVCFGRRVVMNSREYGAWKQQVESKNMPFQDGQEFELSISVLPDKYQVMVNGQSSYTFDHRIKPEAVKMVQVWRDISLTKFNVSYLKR
# What was measured:
# human Gal10-His [1] = target: T1, human Gal10-His; experiment: SPR Biacore 3000, Fab periplasmic extract on Gal10-His-coated CM5
# Protocol: The binding properties of the Fabs (periplasmic extract) to human Gal10-His were analyzed by SPR with a Biacore 3000 instrument. For this purpose, the diluted periplasmic extract was applied on a CM5 chip coated with human Gal10-His. As a positive control, a 20 nM injection of the purified g7B07 clone in the human Fab backbone was included at the beginning and end of the run.
# The binding capacity of the Fab periplasmic extract was analyzed by SPR technology using a Biacore 3000. Briefly, diluted periplasmic extracts were injected on CM5 chip coated with 2500 RU of Gal10-His. The amplitude of the binding (Rmax), the dissociation (off-rate) of each clone, as well as the off-rate fold change compared to the controls (g7B07 and g7B07_N53A) are indicated. Clones g20H09 and g23H09 had similar or better off rate compared to the control g7B07 (Table 10). The randomized part of the CDR2 sequence is underlined (Table 10).
# human Gal10-His [2] = target: T1, human Gal10-His; experiment: SPR Biacore 3000, hFab on captured human Gal10-His; column head prints (M), the text gives nM
# Protocol: (§1) The binding properties of the selected clones to human and cynomolgus Gal10 was analyzed via a capture method established on a Biacore 3000 instrument.
# (§2) For this purpose, two approaches were used. In the first, two concentrations of the selected clones were applied on cynomolgus (WGS isoform) Gal10-His capture on a CM5 chip coated with a monoclonal anti-His antibody. The second approach involved a serial dilution that was applied on human or cynomolgus (WGS isoform) Gal10-His in the same set-up.
# human Gal10-His [3] = target: T1, human Gal10-His; experiment: SPR Biacore 3000, purified hFab (2 conc.) on Gal10-His captured by anti-His CM5
# Protocol: (§3) The binding properties of the selected Fab clones to human Gal10 were analyzed via a capture method established on a Biacore 3000 instrument. Two concentrations of the selected Fab clones were tested on human Gal10-His immobilized on a CM5 chip coated with a monoclonal anti-His. As controls, the clone g7B07 and g7B07_N53A were injected at the beginning and the end of the run. Briefly, a CM5 chip was coated with a monoclonal anti-His antibody (4000 RU), then a fixed concentration of the human Gal10-His (25 μg/mL) was captured on the anti-His chip before receiving two concentrations of the clones in the human Fab backbone.
# human Gal10-His [4] = target: T1, human Gal10-His; experiment: SPR slope against calibrators on captured Gal10-His; T0 sample
# Protocol: (§4) The binding properties of the seven selected clones following two weeks of temperature stress was analysed using an optimized capture method on a Biacore 3000 instrument. The binding properties of the stressed samples were determined, compared to the calibration point, and expressed as a percentage of Relative Activity (% RA).
# (§5) Briefly, a capture method was set-up on a Biacore 3000 instrument. For this purpose, a CM5 chip was coated with a monoclonal anti-His antibody (4000 RU), then a fixed concentration of the human Gal10-His (25 μg/mL) was captured on the anti-His chip before receiving duplicate injections of the calibrators, QC samples and temperature stressed samples of each clone. The slope of each injected sample was then calculated using the BIA evaluation software. Concentrations of the QC samples and temperature stressed samples were back-calculated by interpolating the obtained slopes of these samples to the calibrator curve. Obtained values were within +/−20% of the nominal concentration of the tested samples and are expressed as average relative accuracy (avg % RA) (Table 13).
# [5] = target: T2, cynomolgus Gal10-His (WGS isoform) (cynomolgus); experiment: SPR Biacore 3000, hFab on cynomolgus Gal10-His (WGS) captured by anti-His CM5
# T2 construct: also called cynomolgus antigen
# Protocol: as §1, §2
# human Gal10-His [6] = target: T1, human Gal10-His; experiment: SPR Biacore 3000, purified hFab on captured Gal10-His
# Protocol: as §3
# [7] = target: T2, cynomolgus Gal10-His (WGS isoform); experiment: SPR Biacore 3000, hFab on captured cynomolgus Gal10-His (WGS); column head prints (M), the text gives nM
# Protocol: as §1, §2
# human Gal10-His [8] = target: T1, human Gal10-His; experiment: competition ELISA on coated Gal10-His; hFab 20 ug/mL, competitor g7B07-hFab-Biot, streptavidin-HRP
# Protocol: An epitope binning analysis of the humanized Fab clones was carried out in comparison with the humanized Fab of g7B07.
# For this experiment, a sub-optimal concentration of the biotinylated clone g7B07-humanized Fab was added to the Gal10 coated plate and pre-incubated with the selected clones. The percentage competition with g7B07 was then determined (Table 17). Motavizumab (Mota) in a human Fab backbone was used as a negative control (0% competition). Clone g7B07 was used as the positive control for competition and was therefore set as the 100% competition value. The anti-human specific clone 1D11 (binding to Tyrosine 69 residue) was included in the tested panel as a negative control for competition with 7B07 for Gal10 binding because it was known that clone 1D11 binds to the opposite side of Gal10 (including Tyrosine 69).
# human Gal10-His [9] = target: T1, human Gal10-His; experiment: SPR slope against calibrators on captured Gal10-His; sample 2 weeks at 37 C
# Protocol: as §4, §5
# human Gal10-His [10] = target: T1, human Gal10-His; experiment: SPR Biacore 3000, hFab on human Gal10-His captured by anti-His CM5
# Protocol: as §1, §2
Binder,Fold off-rate compared to g7B07 (human Gal10-His [1]) [fold],koff (human Gal10-His [1]) [s⁻¹],also measured
"g20B05 (Fab, periplasmic extract) (Fab, V domains shown, X3 library; VH assembled by inference) VH: EVQLLESGGGLVQPGGSLRLSCAASGFTFRSYDMSWVRQAPGKGLEWVSAIKPVGITYYADSVKGRFTISRDNSKNTLYLQMNSLRAEDTAVYYCATTHGIGTLGFGSWGQGTLVTVSS VL: SYELTQPLSVSVALGQTARITCDGNNIGSKSAQWYQQKPGQAPVLVIYADEYRPEGIPERFSGSNSGNTATLTISRAQAGDEADYYCQVWDGSAAVFGGGTQLTVL",3.3,0.023,–
"g24F02 (human Fab) (Fab, V domains shown, Human Fab backbone (human CH1, human lambda CL); also called germlined 24F02) VH: EVQLLESGGGLVQPGGSLRLSCAASGFTFSSYAMSWVRQAPGKGLEWVSAINNGGGSTSYADSVKGRFTISRDNSKNTLYLQMNSLRAEDTAVYYCAKGLRVGVLGFDYWGQGTLVTVSS VL: SYELTQPLSVSVALGQTARITCDGNNIGSKSAQWYQQKPGQAPVLVIYADEYRPEGIPERFSGSNSGNTATLTISRAQAGDEADYYCQVWDGSAAVFGGGTQLTVL",–,–,Kd (human Gal10-His [2]): 1.49 nM; Kd (human Gal10-His [3]): 2 nM; kd-fold drop vs g7B07 (human Gal10-His [3]): 2.8 fold; koff (human Gal10-His [3]): 0.0016 s⁻¹; kon (human Gal10-His [3]): 830000 M⁻¹ s⁻¹; % Relative Activity (RA) on Biacore (human Gal10-His [4]): 101%; Amplitude R0 [5]: 566 RU; koff [5]: 0.0078 s⁻¹; kon [5]: 1.4e+06 M⁻¹ s⁻¹; fold better affinity than g7B07 (human Gal10-His [6]): 4.7 fold; Kd [7]: 5.4 nM; % Competition against g7B07-Biot (human Gal10-His [8]): 96.5%; Mean OD value (human Gal10-His [8]): 0.26 OD; % Relative Activity (RA) on Biacore (human Gal10-His [9]): 175%; Amplitude R0 (human Gal10-His [10]): 644 RU; koff (human Gal10-His [10]): 0.0016 s⁻¹; kon (human Gal10-His [10]): 1.1e+06 M⁻¹ s⁻¹
"g21F11 (Fab, periplasmic extract) (Fab, V domains shown, X4 library; VH assembled by inference) VH: EVQLLESGGGLVQPGGSLRLSCAASGFTFRSYDMSWVRQAPGKGLEWVSAIHTPMTYYADSVKGRFTISRDNSKNTLYLQMNSLRAEDTAVYYCATTHGIGTLGFGSWGQGTLVTVSS VL: SYELTQPLSVSVALGQTARITCDGNNIGSKSAQWYQQKPGQAPVLVIYADEYRPEGIPERFSGSNSGNTATLTISRAQAGDEADYYCQVWDGSAAVFGGGTQLTVL",5.1,0.035,–
"g23H11 (Fab, periplasmic extract) (Fab, V domains shown, X6 library; VH assembled by inference) VH: EVQLLESGGGLVQPGGSLRLSCAASGFTFRSYDMSWVRQAPGKGLEWVSAISKMPHLTYYADSVKGRFTISRDNSKNTLYLQMNSLRAEDTAVYYCATTHGIGTLGFGSWGQGTLVTVSS VL: SYELTQPLSVSVALGQTARITCDGNNIGSKSAQWYQQKPGQAPVLVIYADEYRPEGIPERFSGSNSGNTATLTISRAQAGDEADYYCQVWDGSAAVFGGGTQLTVL",3.6,0.025,–
"g21B01 (Fab, periplasmic extract) (Fab, V domains shown, X4 library; VH assembled by inference) VH: EVQLLESGGGLVQPGGSLRLSCAASGFTFRSYDMSWVRQAPGKGLEWVSAISGALTYYADSVKGRFTISRDNSKNTLYLQMNSLRAEDTAVYYCATTHGIGTLGFGSWGQGTLVTVSS VL: SYELTQPLSVSVALGQTARITCDGNNIGSKSAQWYQQKPGQAPVLVIYADEYRPEGIPERFSGSNSGNTATLTISRAQAGDEADYYCQVWDGSAAVFGGGTQLTVL",3.8,0.026,–
"g23G11 (Fab, periplasmic extract) (Fab, V domains shown, X6 library; VH assembled by inference) VH: EVQLLESGGGLVQPGGSLRLSCAASGFTFRSYDMSWVRQAPGKGLEWVSAIQKTIVPTYYADSVKGRFTISRDNSKNTLYLQMNSLRAEDTAVYYCATTHGIGTLGFGSWGQGTLVTVSS VL: SYELTQPLSVSVALGQTARITCDGNNIGSKSAQWYQQKPGQAPVLVIYADEYRPEGIPERFSGSNSGNTATLTISRAQAGDEADYYCQVWDGSAAVFGGGTQLTVL",2.6,0.018,–
"g22C03 (Fab, periplasmic extract) (Fab, V domains shown, X5 library; VH assembled by inference) VH: EVQLLESGGGLVQPGGSLRLSCAASGFTFRSYDMSWVRQAPGKGLEWVSAIKLGTFTYYADSVKGRFTISRDNSKNTLYLQMNSLRAEDTAVYYCATTHGIGTLGFGSWGQGTLVTVSS VL: SYELTQPLSVSVALGQTARITCDGNNIGSKSAQWYQQKPGQAPVLVIYADEYRPEGIPERFSGSNSGNTATLTISRAQAGDEADYYCQVWDGSAAVFGGGTQLTVL",2.9,0.02,–
"g23E05 (Fab, periplasmic extract) (Fab, V domains shown, X6 library; VH assembled by inference) VH: EVQLLESGGGLVQPGGSLRLSCAASGFTFRSYDMSWVRQAPGKGLEWVSAIRTFEHHTYYADSVKGRFTISRDNSKNTLYLQMNSLRAEDTAVYYCATTHGIGTLGFGSWGQGTLVTVSS VL: SYELTQPLSVSVALGQTARITCDGNNIGSKSAQWYQQKPGQAPVLVIYADEYRPEGIPERFSGSNSGNTATLTISRAQAGDEADYYCQVWDGSAAVFGGGTQLTVL",1.8,0.013,–
"g20F04 (Fab, periplasmic extract) (Fab, V domains shown, X3 library) VH: EVQLLESGGGLVQPGGSLRLSCAASGFTFRSYDMSWVRQAPGKGLEWVSAIKHQVITYYADSVKGRFTISRDNSKNTLYLQMNSLRAEDTAVYYCATTHGIGTLGFGSWGQGTLVTVSS VL: SYELTQPLSVSVALGQTARITCDGNNIGSKSAQWYQQKPGQAPVLVIYADEYRPEGIPERFSGSNSGNTATLTISRAQAGDEADYYCQVWDGSAAVFGGGTQLTVL",2.3,0.016,–
"g21C06 (Fab, periplasmic extract) (Fab, V domains shown, X4 library; VH assembled by inference) VH: EVQLLESGGGLVQPGGSLRLSCAASGFTFRSYDMSWVRQAPGKGLEWVSAIKRPWTYYADSVKGRFTISRDNSKNTLYLQMNSLRAEDTAVYYCATTHGIGTLGFGSWGQGTLVTVSS VL: SYELTQPLSVSVALGQTARITCDGNNIGSKSAQWYQQKPGQAPVLVIYADEYRPEGIPERFSGSNSGNTATLTISRAQAGDEADYYCQVWDGSAAVFGGGTQLTVL",5.2,0.036,–
